From article PMC11518995

Molecular target: mTOR with the cancer-associated 1455-EWED-1458 duplication, as the mTOR subunit of mTORC1_EWEDdup (human) (UniProt P42345)
Assay: cryo-EM structure; mTORC1_EWEDdup co-expressed and purified as a complex; 1 uM with 20 uM 4EBP1 and 1 mM AMPPNP, cross-linked with 0.2 mM BS3 and 0.03% glutaraldehyde, glycerol gradient, Superose 6; 50 mM HEPES pH 7.5, 250 mM NaCl, 5 mM MgCl2, 1 mM TCEP

## mTOR with the cancer-associated 1455-EWED-1458 duplication, as the mTOR subunit of mTORC1_EWEDdup, P42345 1-2549
  stoichiometry N: 2
